Experimental data reported in the supplement of paper PMC9112550, “Optimization of the antimicrobial peptide Bac7 by deep mutational scanning” (BMC Biology, 2022).

Test system: Escherichia coli TOP10
Assay: shrunken log2 fold change of peptide-encoding DNA abundance (4.5 h post-induction vs induction); higher = less antimicrobial activity (less host growth inhibition)
Conditions: time post-induction: 4.5 h; library: site-saturation at positions 5, 18, 19, 20
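Note: peptides expressed intracellularly from a pBAD plasmid library in pooled LB shake-flask culture, induced with 0.3% L-arabinose, DNA abundance read by NGS, three biological replicates, DESeq2 with apeglm shrinkage.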

Row | Sequence | shrunken log2 fold change
1 | RRIRARPPRLPRPRPRPMFFPRP | 0.0123
2 | RRIRDRPPRLPRPRPRPIEHPRP | -0.172
3 | RRIRRRPPRLPRPRPRPQRLPRP | 0.124
4 | RRIRHRPPRLPRPRPRPAQFPRP | -0.0111
5 | RRIRNRPPRLPRPRPRPKLKPRP | 0.2
6 | RRIRFRPPRLPRPRPRPPMVPRP | -0.391
7 | RRIRFRPPRLPRPRPRPLKEPRP | -0.273
8 | RRIRCRPPRLPRPRPRPDGCPRP | -0.0861
9 | RRIRTRPPRLPRPRPRPTGQPRP | 0.031
10 | RRIRIRPPRLPRPRPRPLLDPRP | -0.444
11 | RRIRPRPPRLPRPRPRPQVFPRP | 0.0117
12 | RRIRIRPPRLPRPRPRPFIEPRP | -0.848
13 | RRIRKRPPRLPRPRPRPFMIPRP | -0.326
14 | RRIRGRPPRLPRPRPRPMQIPRP | 0.406
15 | RRIRNRPPRLPRPRPRPNEHPRP | -0.071
16 | RRIRWRPPRLPRPRPRPTWFPRP | -0.0378
17 | RRIRNRPPRLPRPRPRPDPQPRP | 0.0854
18 | RRIRWRPPRLPRPRPRPTIRPRP | -0.343
19 | RRIRLRPPRLPRPRPRPSPPPRP | 0.198
20 | RRIRFRPPRLPRPRPRPQMHPRP | -0.332
21 | RRIRYRPPRLPRPRPRPSFLPRP | -0.994
22 | RRIRHRPPRLPRPRPRPLRVPRP | 0.298
23 | RRIRLRPPRLPRPRPRPWVKPRP | -0.0122
24 | RRIRSRPPRLPRPRPRPIFVPRP | 0.0197
25 | RRIRNRPPRLPRPRPRPHAMPRP | -0.316

Row | Sequence | shrunken log2 fold change
26 | RRIRERPPRLPRPRPRPDPKPRP | 0.00358
27 | RRIRCRPPRLPRPRPRPALNPRP | 0.179
28 | RRIRVRPPRLPRPRPRPDSSPRP | -0.0452
29 | RRIRMRPPRLPRPRPRPLSEPRP | 0.511
30 | RRIRCRPPRLPRPRPRPFVLPRP | -0.469
31 | RRIRKRPPRLPRPRPRPTPGPRP | 0.683
32 | RRIRARPPRLPRPRPRPDQIPRP | 0.327
33 | RRIRPRPPRLPRPRPRPVNFPRP | -0.59
34 | RRIRRRPPRLPRPRPRPSRSPRP | 0.139
35 | RRIRGRPPRLPRPRPRPGDWPRP | 1.34
36 | RRIRTRPPRLPRPRPRPDHSPRP | -0.0596
37 | RRIRPRPPRLPRPRPRPLQNPRP | -0.179
38 | RRIRIRPPRLPRPRPRPTSNPRP | -0.807
39 | RRIRKRPPRLPRPRPRPGNYPRP | -0.113
40 | RRIRRRPPRLPRPRPRPDHPPRP | 0.0778
41 | RRIRQRPPRLPRPRPRPENTPRP | -0.387
42 | RRIRVRPPRLPRPRPRPYRYPRP | -0.228
43 | RRIRKRPPRLPRPRPRPSKKPRP | 0.0529
44 | RRIRERPPRLPRPRPRPGGTPRP | -0.215
45 | RRIRTRPPRLPRPRPRPCYEPRP | -0.549
46 | RRIRDRPPRLPRPRPRPWQWPRP | -0.0124
47 | RRIRKRPPRLPRPRPRPTNQPRP | 0.289
48 | RRIRNRPPRLPRPRPRPKTKPRP | -0.0202
49 | RRIRPRPPRLPRPRPRPHAVPRP | 0.0549
50 | RRIRNRPPRLPRPRPRPDYDPRP | -0.0133
